Reference: patent US5786191A, “Cloning and expression of complementary DNAs for multiple members of the human cytochrome P450 2C subfamily” (priority 1994, dated 1998)

B1: 2C9: recombinant human P450 2C9, allele not specified in the sentence (protein, UniProt P11712 1-490, looked up)
Cytochrome P450 2C9: MDSLVVLVLCLSCLLLLSLWRQSSGRGKLPPGPTPLPVIGNILQIGIKDISKSLTNLSKVYGPVFTLYFGLKPIVVLHGYEAVKEALIDLGEEFSGRGIFPLAERANRGFGIVFSNGKKWKEIRRFSLMTLRNFGMGKRSIEDRVQEEARCLVEELRKTKASPCDPTFILGCAPCNVICSIIFHKRFDYKDQQFLNLMEKLNENIKILSSPWIQICNNFSPIIDYFPGTHNKLLKNVAFMKSYILEKVKEHQESMDMNNPQDFIDCFLMKMEKEKHNQPSEFTIESLENTAVDLFGAGTETTSTTLRYALLLLLKHPEVTAKVQEEIERVIGRNRSPCMQDRSHMPYTDAVVHEVQRYIDLLPTSLPHAVTCDIKFRNYLIPKGTTILISLTSVLHDNKEFPNPEMFDPHHFLDEGGNFKKSKYFMPFSAGKRICVGEALAGMELFLFLTSILQNFNLKSLVDPKNLDTTPVVNGFASVPPFYQLCFIPV
B2: 2C9-Ile^359 (65): recombinant human P450 2C9 allelic variant, clone 65 (protein, UniProt P11712 1-490, looked up)
Cytochrome P450 2C9: B1 Cytochrome P450 2C9
B3: 2C9 Purified from Human Liver: cytochrome P450 2C9 purified from human liver microsomes (protein, UniProt P11712 1-490, looked up)
Cytochrome P450 2C9: B1 Cytochrome P450 2C9
B4: 2C8: recombinant human P450 2C8 (clones 7b and 7c, Thr^130 Ile^264 variant) expressed in yeast (protein, UniProt P10632 1-490, looked up)
Cytochrome P450 2C8: MEPFVVLVLCLSFMLLFSLWRQSCRRRKLPPGPTPLPIIGNMLQIDVKDICKSFTNFSKVYGPVFTVYFGMNPIVVFHGYEAVKEALIDNGEEFSGRGNSPISQRITKGLGIISSNGKRWKEIRRFSLTTLRNFGMGKRSIEDRVQEEAHCLVEELRKTKASPCDPTFILGCAPCNVICSVVFQKRFDYKDQNFLTLMKRFNENFRILNSPWIQVCNNFPLLIDCFPGTHNKVLKNVALTRSYIREKVKEHQASLDVNNPRDFIDCFLIKMEQEKDNQKSEFNIENLVGTVADLFVAGTETTSTTLRYGLLLLLKHPEVTAKVQEEIDHVIGRHRSPCMQDRSHMPYTDAVVHEIQRYSDLVPTGVPHAVTTDTKFRNYLIPKGTTIMALLTSVLHDDKEFPNPNIFDPGHFLDKNGNFKKSDYFMPFSAGKRICAGEGLARMELFLFLTTILQNFNLKSVDDLKNLNTTAVTKGIVSLPPSYQICFIPV
B5: 2C8 Purified from Human Liver: cytochrome P450 2C8 purified from human liver microsomes (protein, UniProt P10632 1-490, looked up)
Cytochrome P450 2C8: B4 Cytochrome P450 2C8
B6: 2C19: human cytochrome P450 2C19 polypeptide, clone 11a, SEQ ID NO:1, expressed recombinantly in yeast (protein)
chain: MDPFVVLVLCLSCLLLLSIWRQSSGRGKLPPGPTPLPVIGNILQIDIKDVSKSLTNLSKIYGPVFTLYFGLERMVVLHGYEVVKEALIDLGEEFSGRGHFPLAERANRGFGIVFSNGKRWKEIRRFSLMTLRNFGMGKRSIEDRVQEEARCLVEELRKTKASPCDPTFILGCAPCNVICSIIFQKRFDYKDQQFLNLMEKLNENIRIVSTPWIQICNNFPTIIDYFPGTHNKLLKNLAFMESDILEKVKEHQESMDINNPRDFIDCFLIKMEKEKQNQQSEFTIENLVITAADLLGAGTETTSTTLRYALLLLLKHPEVTAKVQEEIERVIGRNRSPCMQDRGHMPYTDAVVHEVQRYIDLIPTSLPHAVTCDVKFRNYLIPKGTTILTSLTSVLHDNKEFPNPEMFDPRHFLDEGGNFKKSNYFMPFSAGKRICVGEGLARMELFLFLTFILQNFNLKSLIDPKDLDTTPVVNGFASVPPFYQLCFIPV
B7: 2C18-Thr^385 (29c): recombinant 2C18 allelic variant 29c (Thr 385) in yeast microsomes; Table III does not state residue 2 (protein, UniProt P33260 26-490, looked up)
Cytochrome P450 2C18: RGRLPSGPTPLPIIGNILQLDVKDMSKSLTNFSKVYGPVFTVYFGLKPIVVLHGYEAVKEALIDHGEEFSGRGSFPVAEKVNKGLGILFSNGKRWKEIRRFCLMTLRNFGMGKRSIEDRVQEEARCLVEELRKTNASPCDPTFILGCAPCNVICSVIFHDRFDYKDQRFLNLMEKFNENLRILSSPWIQVCNNFPALIDYLPGSHNKIAENFAYIKSYVLERIKEHQESLDMNSARDFIDCFLIKMEQEKHNQQSEFTVESLIATVTDMFGAGTETTSTTLRYGLLLLLKYPEVTAKVQEEIECVVGRNRSPCMQDRSHMPYTDAVVHEIQRYIDLLPTNLPHAVTCDVKFKNYLIPKGTTIITSLTSVLHNDKEFPNPEMFDPGHFLDKSGNFKKSDYFMPFSAGKRMCMGEGLARMELFLFLTTILQNFNLKSQVDPKDIDITPIANAFGRVPPLYQLCFIPV
B8: 2C18-Asp^2 Thr^385 (29c-1a): recombinant human P450 2C18 allelic variant 29c with correct Asp at position 2, Thr at 385 (protein, UniProt P33260 26-490, looked up)
Cytochrome P450 2C18: B7 Cytochrome P450 2C18

Key:
Type in all cases: biochemical
[1] = Mephenytoin 4'-hydroxylase assay, recombinant human CYP2C yeast microsomes, S-enantiomer; conditions: for Mephenytoin 4'-Hydroxylase Activity, S: yeast microsomes + P450 reductase, phospholipid, cytochrome b5 2:1, 37° C., 30 min, liver microsomes unfortified, phosphate buffer; for R/S Ratio of mephenytoin 4'-hydroxylase activity: recombinant yeast microsomes (Table III)
Protocol: (§1) Purified or recombinant yeast microsomes (10-50 pmol) were preincubated with dilauroylphosphatidylcholine (15 μg per 50 pmol P450), P450 reductase (500 U per 50 mol P450), and human cytochrome b5 (2:1 molar ratio when added). The reconstituted mixture was preincubated for 5 min at 37° C., and then placed on ice. […] The mixture was then incubated at 37° with shaking for 3 min, and the reaction started with the addition of 2 mM NADPH and terminated after 30 min with an equal volume of methanol. […] Reaction volumes were generally 0.25 ml except when the volume of recombinant purified cytochrome or yeast microsomes was greater than 50 μl. In these cases, the volume was increased to 0.5 ml to limit the volume of glycerol from the purified preparation to <4% of the final volume.
(§2) At the end of the incubation period, the reactions were terminated with an equal volume of methanol. The incubation mixture was centrifuged at 10,000 g for 10 min and an aliquot assayed directly using HPLC without extraction. Samples with particularly low activity were concentrated by lyophilization and redissolved in a small volume of methanol:water (1:1) before assay. The HPLC system consisted of a reverse phase C18 (10 μm) Versapak, 300 mm×4.1 mm column (Altech Associates, Deerfield, Ill.) using an isocratic solvent consisting of methanol:water (45:55) with a flow rate was kept of 1 ml/min for 25 min.

[2] = Mephenytoin 4'-hydroxylase assay, purified recombinant P450s in reconstituted system, S-enantiomer; conditions: for R/S Ratio of mephenytoin 4'-hydroxylase activity: purified P450s (Table IV); for Mephenytoin 4'-Hydroxylase Activity, S: purified P450s, triplicate, means ± SE, blank not subtracted
Protocol: as §1, §2

[3] = Tolbutamide hydroxylase assay, recombinant human CYP2C yeast microsomes; conditions: for Tolbutamide Hydroxylase Activity per mg protein: 1 mg yeast microsomal protein + P450 reductase, or 0.2 mg liver microsomal protein without reductase; for Tolbutamide Hydroxylase Activity per mg protein / Tolbutamide Hydroxylase Activity per nmol P450: means ± SE; for Tolbutamide Hydroxylase Activity per nmol P450: adjusted for P450 content
Protocol: Yeast microsomes (1 mg protein) were preincubated with 300 pmol hamster P450 reductase in 0.2 ml of the incubation buffer (below) for 3 min at 37° C. The reaction was then placed on ice and incubated in 0.2 ml of 50 mM HEPES buffer (pH 7.4) containing 1.5 mM MgCl2, 0.1 mM EDTA in a final volume of 1 ml and 1 mM sodium tolbutamide. The reaction was initiated with 0.5 mM NADPH. Human liver microsomes (0.22 mg protein) were incubated without reductase. Incubations with reconstituted recombinant P450s contained 50 pmol purified P450 enzyme, 150 pmol P450 reductase, and 15 μg dilauroylphosphatidylcholine, and were performed in 100 mM potassium phosphate buffer (pH 7.4). Reactions were terminated after 60 min at 37° C. by the addition of 50 μl of 4N HCl, followed by extraction with 3 ml of water-saturated ethyl acetate. […] The column eluate was monitored at 230 nm and rates of product formation were determined from standard curves prepared by adding varying amounts of 4-hydroxytolbutamide to incubations conducted without NADPH. […] Samples were analyzed in triplicate.

[4] = Mephenytoin 4'-hydroxylase assay, recombinant human CYP2C yeast microsomes, R-enantiomer; conditions: yeast microsomes + P450 reductase, phospholipid, cytochrome b5 2:1; 0.4 mM substrate; 37° C., 30 min; liver microsomes unfortified, phosphate buffer; means ± SE
Protocol: as §1, §2

[5] = Mephenytoin 4'-hydroxylase assay, purified recombinant P450s in reconstituted system, R-enantiomer; conditions: triplicate, means ± SE, blank not subtracted
Protocol: as §1, §2

[6] = Tolbutamide hydroxylase assay, purified reconstituted P450s; conditions: blank (22 ± 5) subtracted, means ± SE
Protocol: Tolbutamide hydroxylase activity was measured according to Knodell et al., J. Pharmacol. Exper. Ther. 241:1112-1119 (1987), with several modifications. Yeast microsomes (1 mg protein) were preincubated with 300 pmol hamster P450 reductase in 0.2 ml of the incubation buffer (below) for 3 min at 37° C. The reaction was then placed on ice and incubated in 0.2 ml of 50 mM HEPES buffer (pH 7.4) containing 1.5 mM MgCl2, 0.1 mM EDTA in a final volume of 1 ml and 1 mM sodium tolbutamide. The reaction was initiated with 0.5 mM NADPH. Human liver microsomes (0.22 mg protein) were incubated without reductase. Incubations with reconstituted recombinant P450s contained 50 pmol purified P450 enzyme, 150 pmol P450 reductase, and 15 μg dilauroylphosphatidylcholine, and were performed in 100 mM potassium phosphate buffer (pH 7.4). Reactions were terminated after 60 min at 37° C. by the addition of 50 μl of 4N HCl, followed by extraction with 3 ml of water-saturated ethyl acetate. The ethyl acetate extracts were dried under nitrogen at 40° C., the residue resolubilized in 200 μl methanol, and 4-hydroxytolbutamide then assayed using HPLC by injecting 50 μl of the solubilized extract onto a μBONDAPAK C18 column (4.6×300 mm) using 0.05% phosphoric acid, pH 2.6: acetonitrile (6:4, v/v) as the mobile phase with a flow rate of 1 ml/min. The column eluate was monitored at 230 nm and rates of product formation were determined from standard curves prepared by adding varying amounts of 4-hydroxytolbutamide to incubations conducted without NADPH. […] Samples were analyzed in triplicate.

Molecule	Mephenytoin 4'-Hydroxylase Activity, S ([1]; 0.4 mM substrate, means ± SE)	Turnover number of recombinant 2C9 relative to 2C9 purified from human liver ([2]; S-mephenytoin 4'-hydroxylation)	Tolbutamide Hydroxylase Activity per mg protein [3] [nmol/min/mg protein]	Tolbutamide Hydroxylase Activity per nmol P450 [3] [nmol/min/nmol P450]	Tolbutamide turnover number of Ile^359 allele relative to Leu^359 allele of 2C9 ([3]; recombinant microsomes adjusted for P450 content) [fold]	R/S Ratio of mephenytoin 4'-hydroxylase activity [1]	R/S Ratio of mephenytoin 4'-hydroxylase activity [2]	Mephenytoin 4'-Hydroxylase Activity, S ([2]; reconstituted system) [nmol/min/nmol P450]	Mephenytoin 4'-Hydroxylase Activity, R [4] [nmol/min/nmol P450]	Mephenytoin 4'-Hydroxylase Activity, R [5] [nmol/min/nmol P450]	Tolbutamide Hydroxylase Activity [6]	Rate of S-hydroxylation relative to R-hydroxylation of mephenytoin ([1]; stereospecificity, yeast microsomes)	Mephenytoin 4'-Hydroxylase Activity, S ([1]; 0.4 mM substrate, means ± SE, listed as 2C19 (11a)) [nmol/min/nmol P450]	S-mephenytoin 4'-hydroxylation turnover relative to human liver microsomes ([2]; fold higher than human liver microsomes)	S-mephenytoin 4'-hydroxylation turnover relative to recombinant 2C9, 2C18 or 2C8 ([2]; purified, reconstituted system)	S-mephenytoin 4'-hydroxylase turnover relative to P450MP purified from human liver ([2]; vs literature value of Srivastava et al.)	Mephenytoin 4'-Hydroxylase Activity, S, no b5 ([1]; yeast microsomes without cytochrome b5, 0.4 mM substrate, means ± SE) [nmol/min/nmol P450]
B1	0.02 nmol/min/nmol P450	~ 100 times															
B2	0.043 ± 0.000 nmol/min/nmol P450		169.8 ± 7.4	3.4 ± 0.15	3	0.9	0.77	0.081 ± 0.006	0.041 ± 0.005	0.063 ± 0.003	122 + 29 pmol/min/nmol P450						
B3							1.6	0.033 ± 0.001		0.051 ± 0.007	109 ± 16 pmol/min/nmol P450						
B4	0.037 ± 0.001 nmol/min/nmol P450		8.5 ± 0.2	0.11 ± 0.003		0.4	0.4	0.057 ± 0.009	0.016 ± 0.001	0.023 ± 0.004	12 ± 4 pmol/min/nmol P450						
B5							1.6	0.032 ± 0.003		0.051 ± 0.030							
B6	~ 5 nmol/min/nmol P450		18.4 ± 2.4			0.03	0.03	6.17 ± 0.24	0.014 ± 0.02	0.19 ± 0.04		at least 30 fold	4.6 ± 0.3	at least 10 times	50-100 times	~ 30 times	
B7	0.042 ± 0.004 nmol/min/nmol P450					1.3			0.054 ± 0.003								0.034 ± 0.008
B8			9.3 ± 0.7	0.19 ± 0.02			1.3	0.116 ± 0.010		0.147 ± 0.025							
